The values below come from the DeepSol protein solubility set.

A short description of the data set: soluble on expression in E. coli; label from the status in PepcDB or PDB records.
As to “MEKRGVIDTWIDKHRSIYTAATRHAFVVSIRDGSVDLSSFRTWLGQDYLFVRRFVPFVASVLIRACKDSGESSDMEVVLGGIASLNDEIEWFKREGSKWDVDFSTVVPQRANQEYGRFLEDLMSSEVKYPVIMTAFWAIEAVYQESFAHCLEDGNKTPVELTGACHRWGNDGFKQYCSSVKNIAERCLENASGEVLGEAEDVLVRVLELEVAFWEMSRGGQ”, the “soluble on expression in E. coli” value is recorded as “soluble”.

In the case of “SPGNRENKEKKVFISLVGSRGLGCSISSGPIQKPGIFISHVKPGSLSAEVGLEIGDQIVEVNGVDFSNLDHKEAVNVLKSSRSLTISIVAAAGRELFMTDR”, the “soluble on expression in E. coli” value was “soluble”.

On to “MRSAVTFFTFFLDKAEPISTRDTSSESIIPEQEKRRDDMRAVVLVPFLKQQRENRDAASAPAAPGRSVEAKLEEAKGLALAIDLEVTQGLVVPVNQPRPATLFGTGKIEEIGHLLDETNSGLVIVDHPLTPVQQRNLESSGTPRLSTAPVAAALEHHHHHH”, for which the “soluble on expression in E. coli” value is listed as “not soluble”.

Consider “MSTPGTLHIVATPIGNLGDLSPRAQHILRTVTMICAEDTRHTRQLLAHFGIERPLLALHAHNEDTLAERIITRLISGASLALVSDAGTPLISDPGFLLVRAARAAGIRVTPVPGPSALIAALSVSGLPSNRFTFEGFLPAKPTARRDRLTHLAHEPRTLIFYEASHRIAECLTDLATIFGSMRAAVVARELTKIFETVLDGTLATLQTQVANDDNQRKGEFVIIVQGAADQDAAKITEGRRVYALLKEHLPPSSAAKLAAEITGAPRKALYGG”, for which the “soluble on expression in E. coli” value is reported as “soluble”.

Take “MEKNWYVVHTYSGYENKVKANLEKRVESMGMQDKIFRVVVPEETETDVKNGKRKTTKKKVFPGYVLVEMVMTDDSWYVVRNTPGVTGFVGSSGAGSKPTPLMEEEVKMILKRMGMPLAEVDVDYEVNETVRIKEGPFANFTGKIEAIDPDKHKVKLLVDMFGRETRVELEFSQIEKI”: the “soluble on expression in E. coli” value is given as “not soluble”.

With “MSLALITLRQRNNKVEVRVFDTGIGIDADKQKAIFTDFYRIQDSDEAGVGLGLGVVRRLTEQMHATIDVSSVKRKGSCFILNMRIGSPVTESNVTFNKVKQTLSGLNVLCVDDKNENLDALETLLTRWEVNVVMANTYESALTLLASNKHPSPDVLLIDYQLDKDQDGLSLIKDIKAQVGKHIPSAIVTALQDQELKETCLSQGIQFLNKPLKPAKLRALLQSLAKQKSEGHHHHHH”, the “soluble on expression in E. coli” value is on record as “not soluble”.

With “MIEIKHLKTLQALRNSGSLAAAAAVLHQTQSALSHQFSDLEQRLGFRLFVRKSQPLRFTPQGEVLLQLANQVLPQISRALQACNEPQQTRLRIAIECHSCIQWLTPALENFRASWPQVEMDFTSGVTFDPQPALQQGELDLVMTSDILPRSGLHYSPMFDFEVRLVLAPDHPLASKTQITPEDLASETLLIYPVQRSRLDVWRHFLQPAGISPLLKSVDNTLLLIQMVAARMGIAALPHWVVESVERQGLVVTKTLGDGLWSRLYAAVRDGDQRQAVTEAFIRSTRDHACDHLPFVRSAERPIFDAPTAKPGSQPRL”, the “soluble on expression in E. coli” value was “not soluble”.

Regarding “DCCSCQEKWVGYRCNCYFISSEQKTWNESRHLCASQKSSLLQLQNTDELDFMSSSQQFYWIGLSYSEEHTAWLWENGSALSQYLFPSFETFNTKNCIAYNPNGNALDESCEDKNRYICKQQLI”, the “soluble on expression in E. coli” value is listed as “soluble”.

Turning to “MKTVVIGAGLGGLLSAARLSKAGHEVEVFERLPITGGRFTNLSYKGFQLSSGAFHMLPNGPGGPLACFLKEVEASVNIVRSEMTTVRVPLKKGNPDYVKGFKDISFNDFPSLLSYKDRMKIALLIVSTRKNRPSGSSLQAWIKSQVSDEWLIKFADSFCGWALSLKSDEVPVEEVFEIIENMYRFGGTGIPEGGCKGIIDALETVISANGGKIHTGQEVSKILIENGKAAGIIADDRIHDADLVISNLGHAATAVLCSEALSKEADAAYFKMVGTLQPSAGIKICLAADEPLVGHTGVLLTPYTRRINGVNEVTQADPELAPPGKHLTMCHQYVAPENVKNLESEIEMGLEDLKEIFPGKRYEVLLIQSYHDEWPVNRAASGTDPGNETPFSGLYVVGDGAKGKGGIEVEGVALGVMSVMEKVLGLEHHHHHH”, the “soluble on expression in E. coli” value is given as “soluble”.

Take “MKYQVLLYYKYTTIEDPEAFAKEHLAFCKSLNLKGRILVATEGINGTLSGTVEETEKYMEAMQADERFKDTFFKIDPAEEMAFRKMFVRPRSELVALNLEEDVDPLETTGKYLEPAEFKEALLDEDTVVIDARNDYEYDLGHFRGAVRPDIRSFRELPQWIRENKEKFMDKKIVTYCTGGIRCEKFSGWLLKEGFEDVAQLHGGIANYGKNPETRGELWDGKMYVFDDRISVEINHVDKKVIGKDWFDGTPCERYINCANPECNRQILTSEENEHKHLGGCSLECSQHPANRYVKKHNLTEAEVAERLALLEAVEV”: the “soluble on expression in E. coli” value is on record as “not soluble”.
